One substance from patent US20020106775 can be followed below.

This series deals with plasminogen.

In the case of “LMW-uPA-A279 (LMW-uPA with Cys279 to Ala279 replacement)”, the zymography entry is “the product shown to be active in zymography (data not shown)”.
